Measurements: patent US20050287542
Where a chain is given by its changes, count along the chain named.

What was measured:
[1] = biological target: G27 (isolated GCN4 basic region) (UniProt P03069); experiment: EMSA
G56 (GCN4 bZIP element) = G56 (GCN4 bZIP element) (UniProt P03069); experiment: EMSA
[2] = test system: T1, PPBR2SR (Artificial Sequence); experiment: EMSA; conditions: physiological ionic strength, on ice
T1 sequence: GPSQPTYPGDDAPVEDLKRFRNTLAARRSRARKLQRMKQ

[3] = test system: T2, PPBR4-deltaSR (Artificial Sequence); experiment: EMSA; conditions: hydrophobic core disrupted; scale: kcal/mol less stable than PPBR4SR-hsCRE24
T2 sequence: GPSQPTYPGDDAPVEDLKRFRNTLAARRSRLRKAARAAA

[4] = test system: T3, PPBR4SR (PPBR4) (Artificial Sequence); experiment: EMSA
T3 sequence: T2 sequence with L31A

[5] = test system: p007 (Artificial Sequence); experiment: EMSA
[6] = test system: p011 (Artificial Sequence); experiment: EMSA; conditions: 4 C
[7] = test system: p012 (Artificial Sequence); experiment: EMSA; conditions: 4 C
[8] = test system: p016 (Artificial Sequence); experiment: EMSA; conditions: 4 C
[9] = test system: p007 (Artificial Sequence); conditions: scale: fold average specificity ratio for hsCRE over any site in CT DNA
[10] = test system: PPBR4 on phage (Artificial Sequence); experiment: pulldown; conditions: phage panning, PBS, 0.1% NP-40, 2.5 ug/ml poly-dIdC, 4 C
[11] = test system: aPP (avian pancreatic polypeptide) (avian); experiment: pulldown; conditions: phage panning, negative control; computed from the stated 10-fold

In the case of hsCRE24, the Kd ([1]; 4 C) is reported as 410 nM, the binding signal ([1]; lacks polyproline helix and turn, scale: kcal/mol less stable than PPBR4SR-hsCRE24) is reported as 3.1 and the binding signal (fold preference over hsCEBP24) (G56 (GCN4 bZIP element)) is reported as 180. The Kd [2] was 5 nM, the binding signal [3] was 3.2 and the Kd ([4]; PPBR4, 4 C) was 1.9 nM. For the same substance, the Kd ([4]; physiological ionic strength, on ice) was 1.5 nM, the Kd ([5]; 4 C, PBS-type buffer with 1 mM EDTA) was 0.023 nM and the Kd ([5]; 25 C) was 1.6 nM. For the same substance, the Kd [6] was 1.5 nM, the Kd [7] was 2.5 nM and the Kd [8] was 0.3 nM.

calf thymus DNA gave a binding signal [9] of 4170.

For hsCEBP24, the binding signal (G56 (GCN4 bZIP element); ddG -2.9 kcal/mol, scale: fold specificity ratio for hsCRE24 over hsCEBP24) was 180 and the binding signal ([4]; ddG -4.4 kcal/mol, scale: fold specificity ratio for hsCRE24 over hsCEBP24) was 2600.

In the case of hsCRE24 on beads, the binding signal (fold retention over aPP phage) [10] is reported as 10 and the binding signal (fold retention relative to PPBR4 phage) [11] is reported as 0.1.
